In paper PMC6519983 one finds binding rate (molecules μm^−1 s^−1) data, which are given here for one substance.

The target in the assay is microtubules (MTs) formed in Xenopus egg extracts (Xenopus laevis (endogenous in egg extract)). Briefly: TIRF microscopy of GFP-TPX2 on microtubules; endogenous TPX2 immunodepleted and replaced with 20-30 nM (25 nM) GFP-TPX2 in Xenopus egg extract; 10 µM RanQ69L, 0.5 mM vanadate; silane-passivated coverslips; rise of TPX2 intensity at single pixels of individual de novo MTs before the first branch, normalised by the fluorescence of a single GFP-TPX2 molecule.

As to “Full-length TPX2 with N-terminal Strep II-6xHis-GFP-TEV site tags (natural protein)”, the binding rate (molecules μm^−1 s^−1) worked out at 0.4.
